In publication PMC4180932, “Reorganisation of the Salivary Mucin Network by Dietary Components: Insights from Green Tea Polyphenols” (PLOS One, 2014):

What was measured:
[1] = target: CT5B, recombinant C-terminal construct of MUC5B (D4-B-C-CK domains, residues 4958-5765) (human); assay: SDS-PAGE; purified recombinant protein seen as monomer and dimer; gels of gradient fractions, silver stained (NT5B) or Coomassie stained (CT5B)
[2] = target: the molecule itself; assay: as above

stoichiometry N [1] | Molecule | stoichiometry N [2]
2 | CT5B, recombinant C-terminal construct of MUC5B (D4-B-C-CK domains, residues 4958-5765) (domain or fragment) | –
– | NT5B, recombinant N-terminal construct of MUC5B (D1-D2-D′-D3 domains, residues 26-1304) (domain or fragment, human, UniProt Q9HC84 26-1304, looked up, MUC5B, human, D1-D2-D′-D3 domains, residues 26-1304; Purified as a mixture of monomer and dimer (75 and 150 kDa as printed); also called N-terminal MUC5B protein) QGPVEPSWENAGHTMDGGAPTSSPTRRVSFVPPVTVFPSLSPLNPAHNGRVCSTWGDFHYKTFDGDVFRFPGLCNYVFSEHCRAAYEDFNVQLRRGLVGSRPVVTRVVIKAQGLVLEASNGSVLINGQREELPYSRTGLLVEQSGDYIKVSIRLVLTFLWNGEDSALLELDPKYANQTCGLCGDFNGLPAFNEFYAHNARLTPLQFGNLQKLDGPTEQCPDPLPLPAGNCTDEEGICHRTLLGPAFAECHALVDSTAYLAACAQDLCRCPTCPCATFVEYSRQCAHAGGQPRNWRCPELCPRTCPLNMQHQECGSPCTDTCSNPQRAQLCEDHCVDGCFCPPGTVLDDITHSGCLPLGQCPCTHGGRTYSPGTSFNTTCSSCTCSGGLWQCQDLPCPGTCSVQGGAHISTYDEKLYDLHGDCSYVLSKKCADSSFTVLAELRKCGLTDNENCLKAVTLSLDGGDTAIRVQADGGVFLNSIYTQLPLSAANITLFTPSSFFIVVQTGLGLQLLVQLVPLMQVFVRLDPAHQGQMCGLCGNFNQNQADDFTALSGVVEATGAAFANTWKAQAACANARNSFEDPCSLSVENENYARHWCSRLTDPNSAFSRCHSIINPKPFHSNCMFDTCNCERSEDCLCAALSSYVHACAAKGVQLSDWRDGVCTKYMQNCPKSQRYAYVVDACQPTCRGLSEADVTCSVSFVPVDGCTCPAGTFLNDAGACVPAQECPCYAHGTVLAPGEVVHDEGAVCSCTGGKLSCLGASLQKSTGCAAPMVYLDCSNSSAGTPGAECLRSCHTLDVGCFSTHCVSGCVCPPGLVSDGSGGCIAEEDCPCVHNEATYKPGETIRVDCNTCTCRNRRWECSHRLCLGTCVAYGDGHFITFDGDRYSFEGSCEYILAQDYCGDNTTHGTFRIVTENIPCGTTGTTCSKAIKLFVESYELILQEGTFKAVARGPGGDPPYKIRYMGIFLVIETHGMAVSWDRKTSVFIRLHQDYKGRVCGLCGNFDDNAINDFATRSRSVVGDALEFGNSWKLSPSCPDALAPKDPCTANPFRKSWAQKQCSILHGPTFAACRSQVDSTKYYEACVNDACACDSGGDCECFCTAVAAYAQACHDAGLCVSWRTPDTCPLFCDFYNPHGGCEWHYQPCGAPCLKTCRNPSGHCLVDLPGLEGCYPKCPPSQPFFNEDQMKCVAQCGCYDKDGNYYDVGARVPTAENCQSCNCTPSGIQCAHSLEACTCTYEDRTYSYQDVIYNTTDGLGACLIAICGSNGTIIRKAVACPG | 2
